{"source": "paper PMC10419308", "about": "“Structural Insight into the Amino Acid Environment of the Two-Domain Laccase’s Trinuclear Copper Cluster” (International Journal of Molecular Sciences, 2023)", "proteins": {"B1": {"name": "SgfSL (Streptomyces griseoflavus Small Laccase) (Streptomyces griseoflavus; D268N/M199G/R240H) (protein)", "chain": "AGAAPAGGEVRRVTMYAERLAGGQMGYGLEKGKASIPGPLIELNEGDTLHVEFENTMDVPVSLHVHGLDYEISSDGTKQNKSHVEPGGTRTYTWRTHEPGRRADGTWRAGSAGYWHYHDHVVGTEHGTGGIRNGLYGPVIVRRKGDVLPDATHTIVFNDGTINNRPAHTGPNFEATVGDRVEIVMITHGEYYHTFHMHGHHWADNRTGMLTGPDDPSQVIDNKICGPANSFGFQIIAGEGVGAGAWMYHCHVQSHSDMGMVGLFLVKKPDGTIPGYDPQEHAH", "notes": "pET32-Xa/LIC, E. coli BL21(DE3)/Rosetta; N-terminal thioredoxin-His tail cut off with factor Xa; homotrimer; all variants tested here carry D268N (wild-type data copied from earlier work)"}, "B2": {"name": "SgfSL (Streptomyces griseoflavus Small Laccase) (Streptomyces griseoflavus; D268N/M199G) (protein)", "chain": "B1 chain with H201R", "notes": "as for B1"}, "B3": {"name": "SgfSL (Streptomyces griseoflavus Small Laccase) (Streptomyces griseoflavus; D268N/M199A) (protein)", "chain": "B1 chain with G160A, H201R", "notes": "as for B1"}}, "key": {"[1]": {"substrate": "COc1cccc(OC)c1O", "test": "purified protein", "assay_type": "biochemical, Streptomyces griseoflavus", "conditions": "30 °C, co-substrate O2, table header prints unit as MM"}, "[2]": {"substrate": "CCn1c(=NN=c2sc3cc(S(=O)(=O)O)ccc3n2CC)sc2cc(S(=O)(=O)O)ccc21", "test": "purified protein", "assay_type": "biochemical, Streptomyces griseoflavus", "conditions": "pH 4.0, 50 mM Britton-Robinson buffer, 30 °C, co-substrate O2, table header prints unit as MM"}, "[3]": {"conditions": "pH 8.5, 50 mM Britton-Robinson buffer"}, "[4]": {"conditions": "pH 7.5, 50 mM Britton-Robinson buffer"}, "[5]": {"conditions": "pH 7.0, 50 mM Britton-Robinson buffer"}}, "note": "Changes are numbered by the printed parent chain. Names may count otherwise."}
{"protein": "B1", "values": [{"measurement": "Km", "setting": "[1]; [3]", "value": "240 ± 30", "unit": "µM"}, {"measurement": "kcat", "setting": "[1]; [3]", "value": "8.19 ± 0.13", "unit": "s⁻¹"}, {"measurement": "kcat/Km", "setting": "[1]; [3]", "value": 34100, "unit": "M⁻¹ s⁻¹"}, {"measurement": "Km", "setting": "[2]", "value": "250 ± 20", "unit": "µM"}, {"measurement": "kcat", "setting": "[2]", "value": "38.9 ± 0.99", "unit": "s⁻¹"}, {"measurement": "kcat/Km", "setting": "[2]", "value": 156000, "unit": "M⁻¹ s⁻¹"}]}
{"protein": "B2", "values": [{"measurement": "Km", "setting": "[1]; [4]", "value": "290 ± 20", "unit": "µM"}, {"measurement": "kcat", "setting": "[1]; [4]", "value": "1.88 ± 0.05", "unit": "s⁻¹"}, {"measurement": "kcat/Km", "setting": "[1]; [4]", "value": 6490, "unit": "M⁻¹ s⁻¹"}, {"measurement": "Km", "setting": "[2]", "value": "220 ± 30", "unit": "µM"}, {"measurement": "kcat", "setting": "[2]", "value": "37.7 ± 2.41", "unit": "s⁻¹"}, {"measurement": "kcat/Km", "setting": "[2]", "value": 171000, "unit": "M⁻¹ s⁻¹"}]}
{"protein": "B3", "values": [{"measurement": "Km", "setting": "[1]; [5]", "value": "870 ± 100", "unit": "µM"}, {"measurement": "kcat", "setting": "[1]; [5]", "value": "0.8 ± 0.03", "unit": "s⁻¹"}, {"measurement": "kcat/Km", "setting": "[1]; [5]", "value": 920, "unit": "M⁻¹ s⁻¹"}, {"measurement": "Km", "setting": "[2]", "value": "110 ± 30", "unit": "µM"}, {"measurement": "kcat", "setting": "[2]", "value": "21.4 ± 1.12", "unit": "s⁻¹"}, {"measurement": "kcat/Km", "setting": "[2]", "value": 195000, "unit": "M⁻¹ s⁻¹"}]}
